Experiments:
[1] = target: TZSV N protein (recombinant, expressed from pET30a-TZSV in E. coli BL21 (DE3)) (tomato zonate spot virus); assay: indirect ELISA, negative of the row of FL484-1
[2] = target: TZSV N protein (recombinant, expressed from pET30a-TZSV in E. coli BL21 (DE3)) (tomato zonate spot virus); assay: indirect ELISA, negative of the row of FL484-2
[3] = target: TZSV N protein (recombinant, expressed from pET30a-TZSV in E. coli BL21 (DE3)) (tomato zonate spot virus); assay: indirect ELISA, negative of the row of FL484-3
[4] = target: TZSV N protein (recombinant, expressed from pET30a-TZSV in E. coli BL21 (DE3)) (tomato zonate spot virus); assay: indirect ELISA, negative of the row of FL484-4
[5] = target: TZSV N protein (recombinant, expressed from pET30a-TZSV in E. coli BL21 (DE3)) (tomato zonate spot virus); assay: indirect ELISA, negative of the row of FL484-5
[6] = target: TZSV N protein (recombinant, expressed from pET30a-TZSV in E. coli BL21 (DE3)) (tomato zonate spot virus); assay: indirect ELISA, negative of the row of FL484-6
[7] = target: TZSV N protein (recombinant, expressed from pET30a-TZSV in E. coli BL21 (DE3)) (tomato zonate spot virus); assay: indirect ELISA, negative of the row of FL484-7
[8] = target: TZSV N protein (recombinant, expressed from pET30a-TZSV in E. coli BL21 (DE3)) (tomato zonate spot virus); assay: indirect ELISA, negative of the row of FL484-8
[9] = target: TZSV N protein (recombinant, expressed from pET30a-TZSV in E. coli BL21 (DE3)) (tomato zonate spot virus); assay: indirect ELISA, negative of the row of FL484-9
[10] = target: TZSV N protein (recombinant, expressed from pET30a-TZSV in E. coli BL21 (DE3)) (tomato zonate spot virus); assay: indirect ELISA, negative of the row of FL484-10
[11] = target: TZSV N protein (recombinant, expressed from pET30a-TZSV in E. coli BL21 (DE3)) (tomato zonate spot virus); assay: indirect ELISA, negative of the row of FL484-11
[12] = target: TZSV N protein (recombinant, expressed from pET30a-TZSV in E. coli BL21 (DE3)) (tomato zonate spot virus); assay: indirect ELISA, negative of the row of FL484-12
[13] = target: TZSV N protein (recombinant, expressed from pET30a-TZSV in E. coli BL21 (DE3)) (tomato zonate spot virus); assay: indirect ELISA, negative of the row of FL484-13
[14] = target: TZSV N protein (recombinant, expressed from pET30a-TZSV in E. coli BL21 (DE3)) (tomato zonate spot virus); assay: indirect ELISA, negative of the row of FL484-14
[15] = target: TZSV N protein (recombinant, expressed from pET30a-TZSV in E. coli BL21 (DE3)) (tomato zonate spot virus); assay: indirect ELISA, negative of the row of FL484-15
[16] = target: TZSV N protein (recombinant, expressed from pET30a-TZSV in E. coli BL21 (DE3)) (tomato zonate spot virus); assay: indirect ELISA, negative of the row of FL484-16
[17] = target: TZSV N protein (recombinant, expressed from pET30a-TZSV in E. coli BL21 (DE3)) (tomato zonate spot virus); assay: indirect ELISA, negative of the row of FL484-17
[18] = target: TZSV N protein (recombinant, expressed from pET30a-TZSV in E. coli BL21 (DE3)) (tomato zonate spot virus); assay: indirect ELISA, negative of the row of FL484-18
[19] = target: TZSV N protein (recombinant, expressed from pET30a-TZSV in E. coli BL21 (DE3)) (tomato zonate spot virus); assay: indirect ELISA, negative of the row of FL484-19
[20] = target: TZSV N protein (recombinant, expressed from pET30a-TZSV in E. coli BL21 (DE3)) (tomato zonate spot virus); assay: indirect ELISA, negative of the row of FL484-20
[21] = target: TZSV N protein (recombinant, expressed from pET30a-TZSV in E. coli BL21 (DE3)) (tomato zonate spot virus); assay: indirect ELISA, negative of the row of FL484-21
[22] = target: TZSV N protein (recombinant, expressed from pET30a-TZSV in E. coli BL21 (DE3)) (tomato zonate spot virus); assay: indirect ELISA, negative of the row of FL484-22
[23] = target: TZSV N protein (recombinant, expressed from pET30a-TZSV in E. coli BL21 (DE3)) (tomato zonate spot virus); assay: indirect ELISA, negative of the row of FL484-23
[24] = target: TZSV N protein (recombinant, expressed from pET30a-TZSV in E. coli BL21 (DE3)) (tomato zonate spot virus); assay: indirect ELISA, negative of the row of FL484-24
[25] = target: TZSV N protein (recombinant, expressed from pET30a-TZSV in E. coli BL21 (DE3)) (tomato zonate spot virus); assay: indirect ELISA, negative of the row of FL484-25
[26] = target: TZSV N protein (recombinant, expressed from pET30a-TZSV in E. coli BL21 (DE3)) (tomato zonate spot virus); assay: indirect ELISA, negative of the row of FL484-26
[27] = target: TZSV N protein (recombinant, expressed from pET30a-TZSV in E. coli BL21 (DE3)) (tomato zonate spot virus); assay: indirect ELISA, negative of the row of FL484-27
[28] = target: TZSV N protein (recombinant, expressed from pET30a-TZSV in E. coli BL21 (DE3)) (tomato zonate spot virus); assay: indirect ELISA, negative of the row of FL484-28
[29] = target: TZSV N protein (recombinant, expressed from pET30a-TZSV in E. coli BL21 (DE3)) (tomato zonate spot virus); assay: indirect ELISA, negative of the row of FL484-29
[30] = target: TZSV N protein (recombinant, expressed from pET30a-TZSV in E. coli BL21 (DE3)) (tomato zonate spot virus); assay: indirect ELISA, negative of the row of FL484-30
[31] = target: TZSV N protein (recombinant, expressed from pET30a-TZSV in E. coli BL21 (DE3)) (tomato zonate spot virus); assay: indirect ELISA, negative of the row of FL484-31
[32] = target: TZSV N protein (recombinant, expressed from pET30a-TZSV in E. coli BL21 (DE3)) (tomato zonate spot virus); assay: indirect ELISA, negative of the row of FL484-32
[33] = target: TZSV N protein (recombinant, expressed from pET30a-TZSV in E. coli BL21 (DE3)) (tomato zonate spot virus); assay: indirect ELISA, negative of the row of FL484-33
[34] = target: TZSV N protein (recombinant, expressed from pET30a-TZSV in E. coli BL21 (DE3)) (tomato zonate spot virus); assay: indirect ELISA, negative of the row of FL484-34
[35] = target: TZSV N protein (recombinant, expressed from pET30a-TZSV in E. coli BL21 (DE3)) (tomato zonate spot virus); assay: indirect ELISA, negative of the row of FL484-35
[36] = target: TZSV N protein (recombinant, expressed from pET30a-TZSV in E. coli BL21 (DE3)) (tomato zonate spot virus); assay: indirect ELISA, negative control of the row of M210045
[37] = target: TZSV N protein (recombinant, expressed from pET30a-TZSV in E. coli BL21 (DE3)) (tomato zonate spot virus); assay: indirect ELISA, negative control of the row of M210046
[38] = target: TZSV N protein (recombinant, expressed from pET30a-TZSV in E. coli BL21 (DE3)) (tomato zonate spot virus); assay: indirect ELISA, negative control of the row of M210047
[39] = target: TZSV N protein (recombinant, expressed from pET30a-TZSV in E. coli BL21 (DE3)) (tomato zonate spot virus); assay: indirect ELISA, negative control of the row of M210048

negative control (mouse serum before immunization)
OD450 [1]: 0.169 OD | OD450 [2]: 0.208 OD | OD450 [3]: 0.14 OD | OD450 [4]: 0.23 OD | OD450 [5]: 0.237 OD | OD450 [6]: 0.24 OD | OD450 [7]: 0.24 OD | OD450 [8]: 0.196 OD | OD450 [9]: 0.171 OD | OD450 [10]: 0.158 OD | OD450 [11]: 0.052 OD | OD450 [12]: 0.157 OD | OD450 [13]: 0.155 OD | OD450 [14]: 0.19 OD | OD450 [15]: 0.187 OD | OD450 [16]: 0.209 OD | OD450 [17]: 0.186 OD | OD450 [18]: 0.179 OD | OD450 [19]: 0.164 OD | OD450 [20]: 0.236 OD | OD450 [21]: 0.18 OD | OD450 [22]: 0.163 OD | OD450 [23]: 0.232 OD | OD450 [24]: 0.203 OD | OD450 [25]: 0.234 OD | OD450 [26]: 0.161 OD | OD450 [27]: 0.197 OD | OD450 [28]: 0.229 OD | OD450 [29]: 0.215 OD | OD450 [30]: 0.265 OD | OD450 [31]: 0.172 OD | OD450 [32]: 0.194 OD | OD450 [33]: 0.221 OD | OD450 [34]: 0.193 OD | OD450 [35]: 0.19 OD | OD450 [36]: 0.137 OD | OD450 [37]: 0.146 OD | OD450 [38]: 0.137 OD | OD450 [39]: 0.125 OD

Reference: patent publication US20230160883A1
